# Assay results: PMC7473855, “An alpaca nanobody neutralizes SARS-CoV-2 by blocking receptor interaction” (Nature Communications, 2020)
# Where “and” joins values, the source holds several entries; their conditions need not be identical. Equal entries are not always repeated.
# B1: Ty1 nanobody (VHH)
# VHH: QVQLVETGGGLVQPGGSLRLSCAASGFTFSSVYMNWVRQAPGKGPEWVSRISPNSGNIGYTDSVKGRFTISRDNAKNTLYLQMNNLKPEDTALYYCAIGLNLSSSSVRGQGTQVTVSS
# B2: Ty1 nanobody, biotinylated on the C-terminus (VHH)
# VHH: B1 VHH
# modifications: biotin on the C-terminus (GGGK-biotin joined by Sortase A)
# notes: not shown: Sortase recognition site (LPETG), C-terminal, kept
# Columns and labels:
# [1] = biological target: T1, SARS-CoV-2 spike receptor-binding domain (RBD) (SARS-CoV-2, UniProt P0DTC2 319-541); assay: ITC; conditions: both partners purified
# T1 construct: also called monomeric RBD
# [2] = biological target: T1, SARS-CoV-2 spike receptor-binding …; assay: BLI; conditions: both partners purified
binder,measurement,setting,value
B1,Kd,[1],9 nM
same,dH,[1],~-10 kcal/mol
B2,Kd,[2],8 nM and 13 nM
